Biological target: 109QmHtt (UniProt P42858)
Experiment: cell-based or functional assay

Sequence of 109QmHtt (P42858 other isoform, or with tags, fused parts or gaps): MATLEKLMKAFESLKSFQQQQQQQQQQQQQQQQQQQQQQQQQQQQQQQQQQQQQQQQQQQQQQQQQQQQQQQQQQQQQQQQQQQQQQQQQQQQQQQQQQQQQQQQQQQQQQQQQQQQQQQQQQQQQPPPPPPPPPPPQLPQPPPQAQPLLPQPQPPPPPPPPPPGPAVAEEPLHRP

| Binder | average size of the aggregates (TIRF microscopy, Neuro2a cells) |
| --- | --- |
| RRRRRRRRWD (C-terminal amide (CONH2)) [8R] | 3.3 µm^2 |
| RRRRRRRRWDQQQQQQQQQQQQQQQ (C-terminal amide (CONH2)) [8R15Q] | 0.2 µm^2 |

The remaining lines, values ahead:

| average size of the aggregates (TIRF microscopy, Neuro2a cells) | Binder |
| --- | --- |
| 1.7 µm^2 | RQQRRQQDQRQWQRQRQQR (C-terminal amide (CONH2)) [s8R10Q] |
| 0.3 µm^2 | RRRRRRRRWDQQQQQQQQQQ (C-terminal amide (CONH2)) [8R10Q] |
